Bridge positions count the residues as written; N and C are the ends. Primed or numbered codes have the meaning given here. * marks the point of attachment. DOTA‑PEG4 = alpha-(1,4,7,10-tetraazacyclododecan-1,4,7,10-tetraacetate)-4(ethylene glycol); DOTA = O=C(O)CN1CCN(CC(=O)O)CCN(CC(=O)*)CCN(CC(=O)O)CC1; PEG4′ = polyethylene glycol (PEG4) linker
How the values were obtained:
[1] = previously published, Challita-Eid et al Cancer Res (2016); cited from earlier work
[2] = tested on: HT1376 urothelial cancer cells; assay: In vitro cell cytotoxicity assay of actinium-225 radioconjugates (CellTiter-Glo); assay type: cell-based; settings: compound radiolabeled with 225Ac, 24 hours treatment, 4-5 days regrowth, cell viability
Description: Cytotoxicity to actinium-225 radioconjugates was assessed in HT1376 urothelial cancer cells. Cells were seeded in 96-well plates at densities of 250 to 1000 cells per well two days prior to treatment. On the day of treatment actinium-225 radioconjugates were diluted in culture medium to concentrations ranging from 0.0001 to 100 uCi/mL and treatment solutions were incubated with cells for 24 hours. At the end of the treatment period, the treatment solution was removed, and fresh culture medium was replenished for the regrowth period of the assay that lasted 4-5 days. At the end of the regrowth period the culture medium was removed and viability was assessed by CellTiter-Glo (Promega, Waltham MA) luminescent assay and the plates were read on a Perkin Elmer Enspire multimode plate reader. Data were normalized to treatment controls and plotted as non-linear sigmoidal dose response curves to determine the effective concentration for 50% reduction in cell viability.

[3] = Thermal stability at 75° C. in 0.9% saline by HPLC; assay type: physicochemical; settings: 1 mg/mL, 0.9% Saline solution, 60 minutes, FIG. 7
Description: The thermal stability of an exemplary compound, C215, was analyzed at a concentration of 1 mg/mL at 75° C. in 0.9% Saline solution. A heating plate was set to 75° C. and the sample was heated for a period of one hour. The vial was shaken prior to collecting […] at 5, 10, 15, 30 and 60 minute time intervals. The % parent remaining was analyzed by HPLC using the following system and method: Analytical Agilent 1100 HPLC system using a 4.6×250 mm, 300 Angstrom, BEH300, […], Xbridge C18 column at […]. The solvent system consisted of A=Water+0.1% TFA, B=Acetonitrile+0.1% TFA. The gradient consisted of 5% to 70% B over 15 minutes, then the column was washed and equilibrated to initial conditions.

[4] = Plasma pharmacokinetic analysis in Sprague Dawley rats; assay type: in vivo; settings: rat, bolus intravenous injection, read-out: PK DATA (t½ - min)
Description: Nine blood collection timepoints are taken from 2-24 hours, processed to plasma with K2EDTA, and are frozen for subsequent bioanalysis. Plasma miniprotein concentrations are measured by LC-MS/MS. Plasma FITC-sinistrin is measured fluorometrically. […] Finally, non-compartmental analysis is performed to estimate plasma pharmacokinetic parameters.
Exemplary pK data for exemplary Nectin-4 miniprotein monomers were tested in vivo (t1/2 mins), showing an average pK for these exemplary compounds.

[5] = target: T1, Nectin-4 on HT1376 urothelial cancer cells (UniProt Q96NY8 32-510); assay: saturation radioligand binding (Lu-177) on HT1376 cells, 4 C, gamma counting
T1 construct: whole, on cells; also called HT1376 cells
T1 sequence (looked up): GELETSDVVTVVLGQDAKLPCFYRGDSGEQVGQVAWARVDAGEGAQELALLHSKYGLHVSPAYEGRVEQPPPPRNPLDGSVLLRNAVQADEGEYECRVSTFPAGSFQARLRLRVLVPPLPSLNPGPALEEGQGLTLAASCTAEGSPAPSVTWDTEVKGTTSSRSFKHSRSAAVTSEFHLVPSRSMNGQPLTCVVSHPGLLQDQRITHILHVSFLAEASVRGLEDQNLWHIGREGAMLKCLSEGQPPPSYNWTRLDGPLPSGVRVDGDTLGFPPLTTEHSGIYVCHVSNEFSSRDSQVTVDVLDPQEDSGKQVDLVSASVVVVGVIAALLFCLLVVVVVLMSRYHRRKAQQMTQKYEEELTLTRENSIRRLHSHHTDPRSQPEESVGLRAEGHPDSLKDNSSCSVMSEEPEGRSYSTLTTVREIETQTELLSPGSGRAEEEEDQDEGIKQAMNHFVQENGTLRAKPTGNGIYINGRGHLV
Description: Radioligand binding was performed in HT1376 urothelial cancer cells by method of saturation. Cells were seeded at 20,000 cells per well in 96-well format 48 hours prior to assay. Lutetium-177-labeled radioconjugates of C215 and C117 were incubated with cells at 4 deg C. for 1 h at various increasing concentrations of radioligand. At the end of incubation cells were washed three times with PBS and radioactivity was quantified by gamma counting as shown in Table 3.

enfortumab vedotin
PK DATA (t½ - min) [1]: 2,476.8 min | PK DATA (t½) [1]: 41.3 h

C215 (CEYDEEFFTALKRLRGGDICYYIKKKFKKVPKLCIEEILDKLGC) [Compound C215]
EC50 (microcurie/milliliter) for Ac-225 radioconjugates [2]: 0.086 microcurie/milliliter | Thermal stability (% parent remaining) [3]: remain stable

C214 ({DOTA‑PEG4}-CEYDEEFFTALKRLRGGDICYYIKKKFDYLPKLCIEEILDNLGC-NH2; disulfide 1-34, 20-44) [Compound C214]
EC50 (microcurie/milliliter) for Ac-225 radioconjugates [2]: 0.014 microcurie/milliliter

CC[C@H](C)[C@@H]1NC(=O)[C@H](CC(=O)O)NC(=O)CNC(=O)CNC(=O)[C@H](CCCNC(N)=O)NC(=O)[C@H](CC(C)C)NC(=O)[C@H](CCCNC(N)=O)NC(=O)[C@H](CCCCNC(C)=O)NC(=O)[C@H](CC(C)C)NC(=O)[C@H](C)NC(=O)[C@H]([C@@H](C)O)NC(=O)[C@H](Cc2ccccc2)NC(=O)[C@H](Cc2ccccc2)NC(=O)[C@H](CCC(=O)O)NC(=O)[C@H](CCC(=O)O)NC(=O)[C@H](CC(=O)O)NC(=O)[C@H](Cc2ccc(O)cc2)NC(=O)[C@H](CCC(=O)O)NC(=O)[C@@H](NC(=O)CCOCCOCCOCCOCCNC(=O)CN2CCN(CC(=O)O)CCN(CC(=O)O)CCN(CC(=O)O)CC2)CSSC[C@@H]2NC(=O)[C@H](CC(C)C)NC(=O)[C@H](CCCCN)NC(=O)[C@@H]3CCCN3C(=O)[C@H](C(C)C)NC(=O)[C@H](CCCCN)NC(=O)[C@H](CCCCN)NC(=O)[C@H](Cc3ccccc3)NC(=O)[C@H](CCCCN)NC(=O)[C@H](CCCCN)NC(=O)[C@H](CCCCN)NC(=O)[C@H]([C@@H](C)CC)NC(=O)[C@H](Cc3ccc(O)cc3)NC(=O)[C@H](Cc3ccc(O)cc3)NC(=O)[C@H](CSSC[C@@H](C(N)=O)NC(=O)CNC(=O)[C@H](CC(C)C)NC(=O)[C@H](CCCCNC(C)=O)NC(=O)[C@H](CC(=O)O)NC(=O)[C@H](CC(C)C)NC(=O)[C@H]([C@@H](C)CC)NC(=O)[C@H](CCC(=O)O)NC(=O)[C@H](CCC(=O)O)NC(=O)[C@H]([C@@H](C)CC)NC2=O)NC1=O [Compound C217]
half-life [4]: 31.4 min

CC[C@H](C)[C@@H]1NC(=O)[C@H](CC(=O)O)NC(=O)CNC(=O)CNC(=O)[C@H](CCCNC(=N)N)NC(=O)[C@H](CC(C)C)NC(=O)[C@H](CCCNC(=N)N)NC(=O)[C@H](CCCCN)NC(=O)[C@H](CC(C)C)NC(=O)[C@H](C)NC(=O)[C@H]([C@@H](C)O)NC(=O)[C@H](Cc2ccccc2)NC(=O)[C@H](Cc2ccccc2)NC(=O)[C@H](CCC(=O)O)NC(=O)[C@H](CCC(=O)O)NC(=O)[C@H](CC(=O)O)NC(=O)[C@H](Cc2ccc(O)cc2)NC(=O)[C@H](CCC(=O)O)NC(=O)[C@@H](NC(=O)CCOCCOCCOCCOCCNC(=O)CN2CCN(CC(=O)O)CCN(CC(=O)O)CCN(CC(=O)O)CC2)CSSC[C@@H]2NC(=O)[C@H](CC(C)C)NC(=O)[C@H](CCCCNC(C)=O)NC(=O)[C@@H]3CCCN3C(=O)[C@H](C(C)C)NC(=O)[C@H](CCCCNC(C)=O)NC(=O)[C@H](CCCCNC(C)=O)NC(=O)[C@H](Cc3ccccc3)NC(=O)[C@H](CCCCNC(C)=O)NC(=O)[C@H](CCCCNC(C)=O)NC(=O)[C@H](CCCCNC(C)=O)NC(=O)[C@H]([C@@H](C)CC)NC(=O)[C@H](Cc3ccc(O)cc3)NC(=O)[C@H](Cc3ccc(O)cc3)NC(=O)[C@H](CSSC[C@@H](C(N)=O)NC(=O)CNC(=O)[C@H](CC(C)C)NC(=O)[C@H](CCCCN)NC(=O)[C@H](CC(=O)O)NC(=O)[C@H](CC(C)C)NC(=O)[C@H]([C@@H](C)CC)NC(=O)[C@H](CCC(=O)O)NC(=O)[C@H](CCC(=O)O)NC(=O)[C@H]([C@@H](C)CC)NC2=O)NC1=O [Compound C216]
half-life [4]: 31.4 min

{DOTA-PEG4′}-CEYDEEFFTALKRLRGGDICYYIQAKFQYLPKLCIEEILDNLGCS-OH (designed binder, disulfide 1-34, 20-44; also: DOTA labeled with lutetium-177) [Lutetium-177-labeled radioconjugate of C117]
Kd [5]: 0.89 nM

{DOTA-PEG4′}-CEYDEEFFTALKRLRGGDICYYIKKKFKKVPKLCIEEILDKLGC-OH (designed binder, disulfide 1-34, 20-44; also: DOTA labeled with lutetium-177) [Lutetium-177-labeled radioconjugate of C215]
Kd [5]: 4.24 nM

Reference: patent US20260034253A1, “NECTIN-4 MINIPROTEIN CONJUGATES” (Aktis Oncology, Inc., priority 2022, published 2026)
